From patent publication US20230416363A1 (KADMON, published 2023)

Columns and labels:
[1] = target: T1, mPD1 (soluble, ELISA of Examples 20 and 24) (mouse, UniProt Q02242 25-167, limits assumed); experiment: ELISA, biotin-mPD1 on streptavidin
T1 construct: also called Biotin-mPD1
T1 sequence (looked up): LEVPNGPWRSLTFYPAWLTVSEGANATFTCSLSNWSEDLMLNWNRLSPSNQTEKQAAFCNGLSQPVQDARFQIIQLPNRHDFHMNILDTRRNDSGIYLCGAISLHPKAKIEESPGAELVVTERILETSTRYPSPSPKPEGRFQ

mPD-1-Fc [2] = target: T2, mPD-1-Fc (mouse; human, UniProt Q02242 25-167, limits assumed); experiment: SPR Biacore, mPD1-Fc
T2 construct: domain: IgV domain; not shown: human IgG1 Fc
T2 sequence (looked up): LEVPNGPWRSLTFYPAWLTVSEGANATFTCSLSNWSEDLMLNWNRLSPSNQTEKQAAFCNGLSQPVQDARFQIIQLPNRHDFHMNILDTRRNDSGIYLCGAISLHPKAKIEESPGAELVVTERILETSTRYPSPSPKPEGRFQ

[3] = target: T1, mPD1 (soluble, ELISA of Examples 20 and …); experiment: blocking ELISA, mPD1 to mPDL1
[4] = target: T3, mouse PD-1 expressed on cells (mouse, UniProt Q02242 25-288); experiment: flow cytometry, mPD1-293 cells
T3 construct: whole, on cells
T3 sequence (looked up): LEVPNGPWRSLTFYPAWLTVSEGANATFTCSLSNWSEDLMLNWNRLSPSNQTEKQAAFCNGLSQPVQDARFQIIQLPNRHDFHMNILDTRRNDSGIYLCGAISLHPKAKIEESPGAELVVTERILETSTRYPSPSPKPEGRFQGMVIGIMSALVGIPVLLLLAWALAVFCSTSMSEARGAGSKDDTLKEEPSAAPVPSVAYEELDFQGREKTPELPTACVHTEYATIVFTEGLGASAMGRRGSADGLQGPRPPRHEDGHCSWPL

[5] = target: T3, mouse PD-1 expressed on cells; experiment: flow cytometry, mPD1-eff cells
mPD-1-Fc [6] = target: T2, mPD-1-Fc; experiment: ELISA, mPD-1-Fc
mPD-1-Fc [7] = target: T2, mPD-1-Fc; experiment: blocking ELISA, mPD-1 to PD-L1
mPD-1-his [8] = target: T4, mPD-1-his (mouse, UniProt Q02242 25-167, limits assumed); experiment: SPR Biacore, mPD1-his
T4 construct: domain: IgV domain
T4 sequence: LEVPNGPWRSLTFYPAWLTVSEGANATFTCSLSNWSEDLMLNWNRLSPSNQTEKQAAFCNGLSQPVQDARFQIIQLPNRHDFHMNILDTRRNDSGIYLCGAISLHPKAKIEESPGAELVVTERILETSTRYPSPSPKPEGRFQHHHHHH

mPD-1-his [9] = target: T4, mPD-1-his; experiment: ELISA, mPD-1-his on streptavidin
[10] = target: T3, mouse PD-1 expressed on cells; experiment: cell-based or functional assay
[11] = target: T1, mPD1 (soluble, ELISA of Examples 20 and …); experiment: ELISA, mPD1
mPD-1-Fc [12] = target: T2, mPD-1-Fc; experiment: ELISA, mPD-1-Fc on streptavidin
[13] = target: T5, hPD1 (soluble, ELISA of Example 20) (human, UniProt Q15116 25-167, limits assumed); experiment: ELISA, hPD1; direct binding ELISA on hPD1 (EC50 row)
T5 sequence (Q15116 25-167 limits assumed): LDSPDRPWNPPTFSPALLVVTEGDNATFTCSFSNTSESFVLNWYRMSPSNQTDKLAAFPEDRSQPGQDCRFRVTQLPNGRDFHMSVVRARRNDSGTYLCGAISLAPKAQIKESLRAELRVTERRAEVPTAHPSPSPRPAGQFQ

[14] = target: T3, mouse PD-1 expressed on cells; experiment: flow cytometry, mPD-1-293 cells
hPD-1-Fc [15] = target: T6, hPD-1-Fc (human, UniProt Q15116 25-167); experiment: SPR Biacore, hPD1-Fc
T6 construct: domain: IgV domain; also called human PD-1-Fc; not shown: human IgG1 Fc
T6 sequence (Q15116 25-167 limits assumed): as above

[16] = target: T3, mouse PD-1 expressed on cells; experiment: cell-based or functional assay; remark: listed apart in the source
[17] = target: T7, human PD-1 expressed on cells (human, UniProt Q15116 25-288); experiment: cell-based or functional assay
T7 sequence (Q15116 25-288): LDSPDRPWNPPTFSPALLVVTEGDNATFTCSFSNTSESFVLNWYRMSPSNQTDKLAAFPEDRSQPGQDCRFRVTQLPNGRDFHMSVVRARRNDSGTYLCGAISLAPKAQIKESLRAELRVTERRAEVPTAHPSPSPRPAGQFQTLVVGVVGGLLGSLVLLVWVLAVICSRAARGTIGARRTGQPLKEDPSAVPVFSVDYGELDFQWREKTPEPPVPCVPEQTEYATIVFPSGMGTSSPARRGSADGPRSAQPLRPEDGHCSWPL

[18] = target: T7, human PD-1 expressed on cells; experiment: flow cytometry, hPD1-293 cells
[19] = target: T7, human PD-1 expressed on cells; experiment: flow cytometry, hPD1-Jurkat cells
[20] = target: T5, hPD1 (soluble, ELISA of Example 20); experiment: ELISA, hPD1
[21] = target: T5, hPD1 (soluble, ELISA of Example 20); experiment: blocking ELISA, hPD1 to hPDL1
hPD-1-his [22] = target: T8, hPD-1-his (human, UniProt Q15116 25-167); experiment: ELISA, biotin-PD-1-his on streptavidin
T8 construct: domain: IgV domain; monomer in solution; biotin-labelled where captured by streptavidin; also called biotin-hPD-1-his
T8 sequence (Q15116 other isoform, or with tags, fused parts or gaps limits assumed): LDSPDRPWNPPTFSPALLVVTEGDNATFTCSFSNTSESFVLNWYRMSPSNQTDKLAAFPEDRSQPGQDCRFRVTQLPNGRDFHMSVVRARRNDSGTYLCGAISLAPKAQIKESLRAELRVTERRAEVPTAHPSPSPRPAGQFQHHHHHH

hPD-1-Fc [23] = target: T6, hPD-1-Fc; experiment: blocking ELISA, PD-1 to PD-L1
hPD-1-Fc [24] = target: T6, hPD-1-Fc; experiment: blocking ELISA, hPD-1 to hPD-L1; set-up: unit not given here
hPD-1-Fc [25] = target: T6, hPD-1-Fc; experiment: ELISA, PD-1-Fc coated
[26] = target: T7, human PD-1 expressed on cells; experiment: flow cytometry, hPD1-293 cells; remark: listed apart in the source
hPD-1-Fc [27] = target: T6, hPD-1-Fc; experiment: SPR, Exp. 2
hPD-1-his [28] = target: T8, hPD-1-his; experiment: SPR, Exp. 2
hPD-1-his [29] = target: T8, hPD-1-his; experiment: SPR Biacore T200, PD-1-his immobilised
[30] = target: T7, human PD-1 expressed on cells; experiment: flow cytometry, SEB-activated PBMC donor
hPD-1-Fc [31] = target: T6, hPD-1-Fc; experiment: SPR, Exp. 1
hPD-1-his [32] = target: T8, hPD-1-his; experiment: SPR, Exp. 1
hPD-1-his [33] = target: T8, hPD-1-his; experiment: ELISA, PD-1-his on anti-his
hPD-1-Fc [34] = target: T6, hPD-1-Fc; experiment: ELISA, hPD-1-Fc coated
[35] = target: T7, human PD-1 expressed on cells; experiment: flow cytometry, activated PBMC donor two
hPD-1-Fc [36] = target: T6, hPD-1-Fc; experiment: SPR, range over experiments
hPD-1-Fc [37] = target: T6, hPD-1-Fc; experiment: blocking ELISA, PD-1 to PD-L2
[38] = target: T7, human PD-1 expressed on cells; experiment: flow cytometry, hPD-1-293 cells
hPD-1-Fc [39] = target: T6, hPD-1-Fc; experiment: SPR Biacore T200, PD-1-Fc immobilised
[40] = target: T7, human PD-1 expressed on cells; experiment: flow cytometry, SEB-activated PBMC donor two
[41] = target: T7, human PD-1 expressed on cells; experiment: cell-based or functional assay; remark: listed apart in the source
hPD-1-his [42] = target: T8, hPD-1-his; experiment: SPR (Biacore), hPD1his immobilised; lower end of the printed KD range over the experiments
hPD-1-his [43] = target: T8, hPD-1-his; experiment: SPR, Exp. 4
hPD-1-Fc [44] = target: T6, hPD-1-Fc; experiment: SPR, Exp. 3
hPD-1-his [45] = target: T8, hPD-1-his; experiment: SPR, Exp. 3
hPD-1-his [46] = target: T8, hPD-1-his; experiment: ELISA, PD-1-his on anti-his; remark: listed apart in the source
[47] = target: T7, human PD-1 expressed on cells; experiment: flow cytometry, activated PBMC donor FA
[48] = target: T7, human PD-1 expressed on cells; experiment: flow cytometry, hPD-1-Jurkat cells
hPD-1-his [49] = target: T8, hPD-1-his; experiment: SPR (Biacore), hPD1his immobilised; upper end of the printed KD range over the experiments
[50] = target: T7, human PD-1 expressed on cells; experiment: flow cytometry, hPD1-Jurkat cells; remark: listed apart in the source
hPD-1-his [51] = target: T8, hPD-1-his; experiment: ELISA, PD-1-his on streptavidin

B1: R3A9 (antibody, V domains shown)
VH: QVQLVQSGAEVKKPGASVKVSCKASGHTFTSYYIHWVRQAPGQGLEWMGIINPSGGSTSYAQKFQGRVTMTRDTSTSTVYMELSSLRSEDTAVYYCARDRAYGGAGDYWGQGTLVTVSS
VL: DIQMTQSPSSLSASVGDRVTITCRASQSVGTWLAWYQQKPGKAPKLLIYSASTLQSGVPSRFSGSGSGTDFTLTISSLQPEDFATYYCQQSYSAPLTFGGGTKVEIK
notes: also called 7115A; mPD1 parental (R3A9)
[1]
  EC50: 0.462 nM
mPD-1-Fc [2]
  Kd: 12.1 nM
  koff: 0.0014 s⁻¹
  kon: 116000 M⁻¹ s⁻¹
[3]
  IC50: 0.722 nM
[4]
  EC50: 0.314 nM
[5]
  EC50: 0.645 nM
mPD-1-Fc [6]
  EC50: 14.6 nM
mPD-1-Fc [7]
  IC50: 0.441 nM
mPD-1-his [8]
  Kd: 15.7 nM
  koff: 0.00641 s⁻¹
  kon: 409000 M⁻¹ s⁻¹
mPD-1-his [9]
  EC50: 1.61 nM
[10]
  IC 50, Promega assay: 1.62 µg/mL
[11]
  EC50: 1.36 nM
mPD-1-Fc [12]
  EC50: 0.156 nM
[13]
  EC50: 3.25 nM
[14]
  EC50: 0.566 nM

B2: m4D1 (antibody, V domains shown)
VH: QVQLVQSGAEVKKPGASVKVSCKASGHTFTSYYIHWVRQAPGQGLEWMGIINPSGGSTSYAQKFQGRVTMTRDTSTSTVYMELSSLRSEDTAVYYCARDRAYGGAGDYWGQGTLVTVSS
VL: DIQMTQSPSSLSASVGDRVTITCRASQSISAWLAWYQQKPGKAPKLLIYKASSLESGVPSRFSGSGSGTDFTLTISSLQPEDFATYYCQQSYSPPATFGGGTKVEIK
notes: R3A9 derivative
[1]
  EC50: 1.15 nM
mPD-1-Fc [2]
  Kd: 2.69 nM
  koff: 0.000179 s⁻¹
  kon: 66300 M⁻¹ s⁻¹
[3]
  IC50: 0.882 nM
[4]
  EC50: 1.14 nM
hPD-1-Fc [15]
  Kd: 1.09 nM
  koff: 6.36e-05 s⁻¹
  kon: 58300 M⁻¹ s⁻¹
[16]
  IC50, Promega blockade bioassay: 0.572 nM
[17]
  IC50, Promega blockade bioassay: 2.12 nM
[5]
  EC50: 0.441 nM
[18]
  EC50: 1.48 nM
[19]
  EC50: 0.738 nM
mPD-1-his [8]
  Kd: 2.87 nM
  koff: 0.000201 s⁻¹
  kon: 70000 M⁻¹ s⁻¹
[20]
  EC50: 0.221 nM
[11]
  EC50: 2.03 nM
[21]
  IC50: 6.02 nM

B3: 38A6 (antibody, V domains shown)
VH: EVQLLESGGGLVQPGGSLRLSCAASGFTFSSYWMSWVRQAPGKGLEWVSAISGSGGSTYYADSVKGRFTISRDNSKNTLYLQMNSLRAEDTAVYYCASSPLQWVDVWGQGTTVTVSS
VL: DIQMTQSPSSLSASVGDRVTITCRASQDISRWLGWYQQKPGKAPKLLIYAASTLQSGVPSRFSGSGSGTDFTLTISSLQPEDFATYYCQQANSFPFTFGPGTKLEIK
notes: also called 780_46
hPD-1-his [22]
  EC50: 0.084 nM
hPD-1-Fc [23]
  IC50: ~2.14 nM
  Inhibition % at 50 nM: 92.2%
  Inhibition, % at 5.56 nM: 92%
hPD-1-Fc [24]
  Inhibition at 50 nM: 91.7
hPD-1-Fc [25]
  EC50: 0.079 nM
[26]
  EC50: 0.15 nM
  MFI at 5 nM: 110 MFI
hPD-1-Fc [27]
  Kd: < 0.136 nM
hPD-1-his [28]
  Kd: < 0.586 nM
hPD-1-his [29]
  Kd: 1.18 nM
[30]
  MFI, 5 nM: 65.2 MFI
hPD-1-Fc [31]
  Kd: < 0.188 nM
hPD-1-his [32]
  Kd: 2.3 nM
hPD-1-his [33]
  OD at 10 nM: 0.576 OD
hPD-1-Fc [34]
  OD at 10 nM: 0.993 OD
[35]
  EC50: 0.17 nM
  MFI at 25 nM: 15.9 MFI
hPD-1-Fc [36]
  Kd: 0.14 to 0.3 nM
hPD-1-Fc [37]
  IC50: 2.39 nM
  Inhibition, % at 3.7 nM: 90.4%
  Inhibition, % at 100 nM: 94.8%
[38]
  MFI, 5 nM: 227 MFI
hPD-1-Fc [39]
  Kd: 0.477 nM
[40]
  MFI, 5 nM: 54.7 MFI
[41]
  EC50, Promega blockade bioassay: 0.164 µg/mL
  Fold induction: 5.66 fold
hPD-1-his [42]
  Kd: ≥ 0.9 nM
hPD-1-his [43]
  Kd: < 0.09 nM
hPD-1-Fc [44]
  Kd: < 0.301 nM
hPD-1-his [45]
  Kd: < 0.574 nM
hPD-1-his [46]
  EC50: 0.089 nM
[47]
  EC50: 0.21 nM
  MFI at 25 nM: 14.5 MFI
[48]
  MFI, 5 nM: 59.9 MFI
hPD-1-his [49]
  Kd: ≤ 2.3 nM
[50]
  EC50: 0.21 nM
  MFI at 5 nM: 89.5 MFI
hPD-1-his [51]
  OD at 10 nM: 0.948 OD
